Source: a protein production outcome set (Wang et al. 2014)

Test: label from the status in PepcDB records

| Sequence | protein production |
| --- | --- |
| MQEEFMKKNSIIAGLFVFCITTAGIGYTVYNSVYSDRQKHRINETAKLDSAKAPNELKDGEYTASAEGYEGPITVKVVIKEGKIFSVEVLSHNETPEYYEMAKKILQTIVEKNTFNVDSISGATVTSDAIKVAVYKALVQAGAKTSDVAEGLEKENEELRDKEKAKLLAKQSSAVAGKVGFNRNNLKDGTFIGVGRGYNGLIKVSISIKNGVIYDARVISHSDDYPYFTWASSVLNKVISGSTNIDTVSGATVSSRGILNAVKDALRKASNGNNSLDINSPDETEQNIPRQNRREIEQIKKYFKGLKDGVYFGKSNGYYTNSIEVKVTVKDGKIAKIELTKNDDDESYFDNKKAGILGERIISNQSTNIDTISGATTSSKGFINAVVNALEKAVDSNGSDADKYIYSPKTIIANVGETIGLQKIRDALEKLPEDVQINIKNNADTSSEGKTKIVVELIFKDNSKKIVEIPVLVNSKVDGSYKFLSAEEVKNLDKNVNYPDGVYYGDSYGFVSNKPIPVKVTIKNNKIENVELVKEELNRLKGVTSPGNVDDGGIFQEKFYTIIDRIKNMQKFESLIYKFEVLRDATSKVMEEARGKEQTVEVYRAALDKVIGKHNFGKWGLSIDESHLKGERNIHDRIFSLLKVYVKEELGYDGSDYDAVSGATFTATGTATSIKNALLKAKNFDFYDMRVDDSNFKTSYKEGDKLDLKDLKVTIYKKNNQKITVSYSDFGKYGLKVVDEYNKELKDGLVLNKENLGYNVTDGLRLKVVHEESKSFKFLNTILISKSTTKNFEISGIKIKAKDGSEWYDTKGYNTTDFIQNLTVSKEVAEKLNNKEIEFKIIAKDKKSSEEIEIPLRQAQNKTLIADFVSGEYTLDVIEKYKGVLFNNTFRIKTKVEGKIPKAFLYKETPETLIISKGTEITESKIRSVLKNLPDKTDISVLRGVDVNKVNETVLQKLLIKLKFDDGSEKEIEIDVIVKEKVISMADKYVYKPKDLITIKGKEVELSHLKNHLDDLPEGTKIEIIEKANVSEVNETGTLMKVSLEFTDKSTKDISINVVVKDTAPNKAEEFKILYPEIKNEIVNVVVKDPKYGNMKNFAETVKWGAFSDFAINRDLKLKSRSADISRIEVLKEPDRSKLGDQKGKIRLSFNDGSKLELEISVKIVPYPVYKIFRLTSNKTQYRLEDKFNLNDLKVTLFISNKLENESDWDTTGTPVLNIPYSDFYLFGIKVVDLDSKKEIENNSIISTLIKNKKLSVGAYCENLIQKNNYESGKKLVEIFNIKITNIDEWKESKKNIVEIKDEKNSKKADDSNKTGKVMASKKEIKNVDNLDNTSEKNKTIESENTTKDKVQRKDSDSGGKLSDDSSEKQNLKTNEKED | failed |
| MQEGQNRKTSSLSILAIAGVEPYQEKPGEEYMNEAQLAHFRRILEAWRNQLRDEVDRTVTHMQDEAANFPDPVDRAAQEEEFSLELRNRDRERKLIKKIEKTLKKVEDEDFGYCESCGVEIGIRRLEARPTADLCIDCKTLAEIREKQMAG | not failed |
| MQEIISFIVETASAWGYLGIIILMTLESCFIPFPSEVVMIPAGYLAHKGELDITLCILSGTLGSVLGALINYYICFFWGKNFVLKWGKYFGINEVKFAKFEEFFNKHGEFSTFTCRLLPGIRQYISMPAGLVKMKLVNFILFTALGSAIWVAILVFLGYYIGQNEELIKTYLTQILIIIIVFVILASLIYISKSKSLLKRLKFYLLRFVWRF | failed |
| MQEIMYLAPELVLVATGLVILLTGVFLSPQSKNILGYLATLGTLAAIFLTVKSFGLLTMEGFSVQYTIFSETLSIDALSQFFKLVFLAVALIVSIASIKYTENSDHTEEFYTLVLFATFGMMIVASANDLILLFCAFELASLATFALAGFEKQNARSLEGAMKYFVIGSVSAALMLFGLSFVYGATGTTSIPLIAQNPGLLTGNPIGIVAIVLLTAGFGFKMALVPFHMWAPDTYQGSPSVVSALLAAGSKKMGFVAAFRVFIIALAALQPDWQFMFTLLAVVTMTFGNVVAVAQTSVKRMLAYSSLAQAGYIAMAFAVMTPVALAGGIMYTLAHAFMKAGAFIAAAAVVWMITSEKTGNLDIPDHLDSFRGLGKRMPLAALCMTVFVFALAGIPPTAGFMAKFVLFSSTIQAGMTWLAVIAILNSALSLFYYARLVKYMYFMPPEGKTEKVSIPFPYAAALLVAVAGVLVMGLWPEPFVELAMKAAMVLVPF | failed |
| MQENKKIDENIDDFLKIVVDLNHIQIEVRDEVQAILLLSSLPSRYDGLVETMKYSNSREKLRLNDVMVAARDKEREMSQNNRLIAEGHYARRRPVGKNNNQGNKGKNRSWSKSADGKRVCWICGKEKHFNEQCYKWLERNKPK | failed |
| MQESWVEGVEDIRMLGSSLRNDSAAAGRACARTRAGPPAESRKKKVQAERRRREGVANAPTRALRFLRARRAWSPRLAAPGPLTLVAEGEEGRNRVPAAKHPCLRTMSPEPAPPEPQGVRSSLEEPSAEPLGQGSAAFLAGDYEVAAELFRSLLAGLAQPERGLCLQLGEALARAGRLPEAIGAFRGAALLGPLQPGELSELASGLARALGLREKRPPVAARPGGCASGTSGPVAPRDLLGCPRCGRLLYKPVTLSSGLTVCKRCVEQVPVRAQARRVNVVLSGLLERCFPAECRLRRLACQARGLQRQQQPEAALLRCQQALDMAPDDSSLLLLRAELYLTMKNYEQALQDADTVCQREPLLTKGHHIKAQILSGLGRNKEVLKEFIYCLALNPECNSAKKETQKVICEVFFSASENEQQNSAPSTQTGPKALCDGQMSPQNPLEEAGGHANADSPKTPSEKPDVPENTNSSVLYFILGLHCEEDKKALEGVIPAAPSGTLKRQLPSDAEDKELDVNTPEKIPKKDADSSPQRNANSLEEEPEFTIDATDFECALCMRLLFEPVTTPCGHTFCLKCLERCLDHAPHCPLCKDKLSELLATRNFNVTVLTEELIFRYLPDELSDRKRVYDEEMSELSHLTRDVPIFVCAMAFPTVPCPLHVFEPRYRLMIRRCMETGTKRFGMCLSAENAGISEYGCMLEIKDVRTFPDGSSVVDAVGISRFRVLSHRHRDGYNTADIEYLEDEKVEGAEFEELTALHESVYQQSVSWFASLQDHMKKQILSHFGSMPDREPEPQSNSSGPAWSWWILAVLPLERKAQLAILGMGSLKERLLAIRRILVIITRKLNSRQEMANNAQRDN | failed |
| MQETMLDLRTVYECNRCLGCKTLHPQVGIINLENPSLEEDAVKFEFYAVLLIEDCPGGCCCCGRKYYDYSNATMVFLTPGEIFRMSKENTLPDKGYLLAFHPDLLFRTSLKNHIKNYTFFHYRKEEALHLSRRETEKVTCCLSNIEDELHHPIDTHSSIILSRHIELLLDYCTRYYERQFITRENKNKALLENMERLFVEYIASGRLQGGKLPTSGYMAGELDLSVAYFDDLLKFETGKTLEEYLQLKRLDIARHMLLQDGHTPAAVARKLGYPNVQCFSVLFKKITGVAPSDYRLSQN | not failed |
| MQFEVLKRFFPKESLKNCKGALWVHTASIGEFNTFLPILKELKREHRILLTYFSPRAREYLKTKSDFYDCLHPLPLDNPFSVKRFEELSKPKALIVVEREFWPSLIIFTKVPKILVNAYAKGSLIEKILSKKFDLIIMRTQEDVEKFKTFGAKRVFSCGNLKFICQKGKGIKLKGEFIVAGSIHTGEVEIILKAFKEIKKTYSSLKLILVPRHIENAKIFEKKARDFGFKTSFFENLEGDVILVDRFGILKELYPVGKIAIVGGTFVNIGGHNLLEPTCWGIPVIYGPYTHKVNDLKEFLEKEGAGFEVKNETELVTKLTELLSVKKEIKVEEKSREIKGCYLEKLREFLRGL | failed |
| MQFQIGDMVARKSYQMDVLFRIIGIEQTSKGNSIAILHGDEVRLIADSDFSDLVAVKKDEQMMRKKKDESRMNESLELLRQDYKLLREKQEYYATSQYQHQEHYFHMPGKVLHLDGDEAYLKKCLNVYKKIGVPVYGIHCHEKKMSASIEVLLDKYRPDILVITGHDAYSKQKGGIDDLNAYRHSKHFVETVQTARKKIPHLDQLVIFAGACQSHFESLIRAGANFASSPSRVNIHALDPVYIVAKISFTPFMERINVWEVLRNTLTREKGLGGIETRGVLRIGMPYKSN | not failed |
| MQFRSIIRIVGLLLALFSVTMLAPALVALLYRDGAGVPFVTTFFVLLFCGAMCWFPNRRHKHELKSRDGFLIVVLFWTVLGSAGSLPFLIADNPNISVTDAFFESFSALTTTGATVIVGLDELPKAILFYRQFLQWFGGMGIIVLAVAILPVLGIGGMQLYRAEIPGPVKDTKMTPRIAETAKALWYIYLSLTIACAVAFWLAGMTPFDAISHSFSTIAIGGFSTHDASMGYFDSYAINLITVVFLLISACNFTLHFAAFASGGVHPKYYWKDPEFRAFIFIQVLLFLVCFLLLLKHHSYTSPYDAFDQALFQTVSISTTAGFTTTGFADWPLFLPVLLLFSSFIGGCAGSTGGGMKVIRILLLTLQGARELKRLVHPRAVYTIKVGGSALPQRVVDAVWGFFSAYALVFVVCMLGLIATGMDELSAFSAVAATLNNLGPGLGEVALHFGDVNDKAKWVLIVSMLFGRLEIFTLLILLTPTFWRS | not failed |
| MQGENAPQRSAEVTILDKQAIDIPHPLPGQDDQEFWIYVQKGRLGPKREFQVGIHYYHALNPGDKGVLTYQGQRFLHFALKRLEHHHHHH | not failed |
| MQGHHFGGDMSNSEAIDNTTAKLRLAQSSSLLALALLIGSAPAQAADTDWGWLAIGAPAATAQGWTGKGVVIGVVDTGIDFSHPALSGRAFDYNYGSFVAGSNHPHATHVAGIIGATDINRGMEGVAPDVRFSSMKIFTGAGGSYLGDAAVADAYDGAIGSGVRIFNNSWGSSDSIANFTSREELLAHEPLLVGAFTRAVNADAVLVWSTGNDGRSQPSWQAAAPYYIQELKANWIAVTSVGENGTIASYANACGVAKAWCLAAPGGDFNPGIYSTIPGKDYGYMSGTSMAAPYVTGATAIARQMFPKASGAQLAQIVLQTSRDIGAPGIDDVYGWGLLAVDNIVDTINPRGAALFASAAWGRFTTLSAIGNTVLDRISDLRNGRGDVVTAPLAFAGQNGAFSQSGSNPRNAYAADLAAAPQPSPLGFGSVWARGLAGRATLSGSASSPQTTADISGGLLGFDLVNNQNLLVGIAGGGSNTNLTASGISDKAGAQAWHVLGYAAAMYGPAFVNVAGGWNSFDQSYQRRVIPGTAGTVFASTISAAQSSSTDVAYFFQGRGGWTFQTEVGRIEPYVHGATRNQSFGGFSETNASIFSLSVPSASLSEAEYGAGVRWACAPIKTVDQRVAVAPTIDLAYVRFTNDGPIQVETNLLGTSVVGQTAALGADAIRVAAGLSLTSLAGISGSFGYTGTVRDAATAHTVSGGLSIKF | failed |
| MQIFVNGETIETEVITLNLLLEELGYEGNWLATAVNAEVVPIDARSRCVLHEGDKIEILSPMQGG | failed |
| MQIGGRQHGDWTHYSVDSDLVVAADAWQVSLGLPGGVFPPDVEPGAMVKVQVGGETVLMGRIDDISHSVASGSHQLTLSGRDLAGMLLDCSAPLFTGKGMTLQDVLDNVVKPLGIANIRVDAKARGQIEKINVDPGNSAWDVLTRAAQANGLTAWFDPDGTLLVGGPDYSRPASARLILRRDGKGNNVLSLAETRSHAQRYSELTLLGQGHGQSLTPGRHAMRHHVFDSDVCYHKPRIQVEPDAASPAELAARADKMLADARLAGYTLTATVAGHRDSQGALWTPGQRIEVESEPHGINGTYFLMARTFEGGRGQGSVTRLTLKEDKCWIPVMRAGKQ | failed |
| MQIIEGKLQLQGNERVAILTSRFNHIITDRLQEGAMDCFKRHGGDEDLLDIVLVPGAYELPFILDKLLESEKYDGVCVLGAIIRGGTPHFDYVSAEATKGIAHAMLKYSMPVSFGVLTTDNIEQAIERAGSKAGNKGFEAMSTLIELLSLCQTLKG | failed |
| MQIKELAELTGVSVRTLHHYDKIGLLVPQKDDWNGYRIYSEKDVDKLQQILFFKELDFPLKKIQQILDDPLFDKNVALDMQRHLLIEKKQRIETMLATLDLTIKNEKGEITMTNKEKFTGFDFSSNPYEEEARKLWGDKVVEKANEKVNNMSEKEQLTLKESFDAEFRHLASVRKLTPESEEAQLEIDHFFHYLNDTHGNIYSLEAFASLGEMYVNDERFTKNIDQFGDGLSQFLQEAMTIYAKNK | not failed |
| MQISIKTVKGKSINLEVADSSDTIDLKINGEPTRQLVLRLGPAVLMRIFVSTIKEKTFILEVKGSDTIKKLKSMIHDQGGPPVDQQDLNHLGTKLKNNATISDYNIKPDANLVIMQNGCIC | failed |
